For 5 substances, ELISA binding, fold vs Wt, ELISA, OD and Kd results are on record in patent publication US20080112961A1.

For assay [1], the target named is FcγRIIB (form not stated) (UniProt P31994). Briefly: ELISA. For orientation: An ELISA detects its analyte on a solid surface through an enzyme-linked reagent.
Assay [2] addresses soluble monomeric FcγRIIIA, the extracellular region of FcγRIIIA joined to the linker-AVITAG sequence (UniProt P08637). The experiment in a line: ELISA.
In assay [3] the target is FcγRIIB-Fc fusion protein, soluble dimer: extracellular domain of FcγRIIB fused to the hinge-CH2-CH3 domain of human IgG2 (human) (UniProt P31994). The experiment in a line: BIAcore, Ab on BSA-FITC.
FcγRIIB-Fc fusion protein, soluble dimer: extracellular domain of FcγRIIB fused to the hinge-CH2-CH3 domain of human IgG2 (human), sequence (P31994 43-217 limits assumed): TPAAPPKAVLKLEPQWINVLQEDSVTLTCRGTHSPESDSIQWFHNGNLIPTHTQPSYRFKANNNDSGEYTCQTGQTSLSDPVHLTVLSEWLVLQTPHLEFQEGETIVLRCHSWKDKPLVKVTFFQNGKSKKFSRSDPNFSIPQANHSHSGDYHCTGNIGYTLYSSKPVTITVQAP
The target in assay [4] is soluble monomeric FcγRIIIA, the extracellular region of FcγRIIIA joined to the linker-AVITAG sequence (UniProt P08637). Briefly: BIAcore, Ab on BSA-FITC. (In general: In SPR one partner is held on a chip, and binding of the other changes the refractive index at the surface.)

pKd: −log10 of the molar value.

FcγRIIB (form not stated), sequence (P31994 43-217 limits assumed): as above

In assay [1], “ch4-4-20 MGFc 28 (N315I, A379M, D399E) (antibody)” returned an ELISA binding, fold vs Wt of 9 X.

In assay [2], “ch4-4-20 Mut 6 (S219V) (from UniProt P01857 1-330) (antibody)” came in with an ELISA, OD of 0.6 OD. In addition, the values for the pKd in assay [3] and in assay [4] were 7.18 and 6.58, respectively.

For “ch4-4-20 Mut 10 (P396L, A330S, K288N) (from UniProt P01857 1-330) (antibody)”, the pKd – broadly, −log10 of the Kd, conventionally taken in molar units – in assay [4] was 6.89.

With “ch4-4-20 Mut 14 (K334E, K288N) (from UniProt P01857 1-330) (antibody)”, the pKd in assay [4] was 7.12.

Consider “ch4-4-20 wild type (from UniProt P01857 1-330) (antibody)”, for which, in assay [2], the ELISA, OD was determined as 0.5 OD.
